The values below come from patent US20180118848A1.

The assay addresses human MUC16 (mucin 16) (human). As to the kind of experiment: MSD ECL cell binding, RLU ratio OVCAR-3 vs SK-OV-3, […] Ab; NS = ratio <2.5-fold.
In the case of hIgG1 Isotype Control Antibody, the Ratio anti-MUC16 Binding OVCAR-3/SK-OV-3 is under 2.5.
Under mIgG1 Isotype Control Antibody stands under 2.5; under mIgG2a Isotype Control Antibody, under 2.5.
